Assay results as given in paper PMC8136917, “The glycosyltransferase UGT76B1 modulates N-hydroxy-pipecolic acid homeostasis and plant immunity” (The Plant Cell, 2021).

Key:
[1] = substrate: O=C(O)[C@@H]1CCCCN1O; assay: UPLC-nanoESI-QTRAP-MS of product NHP-OGlc; Hill regression; type: biochemical, Arabidopsis thaliana; details: UDP-glucose co-substrate (2 mM in methods); 5 min at 25°C (Figure 6 legend; methods say 15 min at 30°C)
[2] = substrate: O=C(O)c1ccccc1O; assay: UPLC-nanoESI-QTRAP-MS of product SAG; Hill regression; type: biochemical, Arabidopsis thaliana; details: UDP-glucose co-substrate (2 mM in methods); 5 min at 25°C (Figure 6 legend; methods say 15 min at 30°C)

B1: UGT76B1 (Arabidopsis thaliana) (protein)
chain: METRETKPVIFLFPFPLQGHLNPMFQLANIFFNRGFSITVIHTEFNSPNSSNFPHFTFVSIPDSLSEPESYPDVIEILHDLNSKCVAPFGDCLKKLISEEPTAACVIVDALWYFTHDLTEKFNFPRIVLRTVNLSAFVAFSKFHVLREKGYLSLQETKADSPVPELPYLRMKDLPWFQTEDPRSGDKLQIGVMKSLKSSSGIIFNAIEDLETDQLDEARIEFPVPLFCIGPFHRYVSASSSSLLAHDMTCLSWLDKQATNSVIYASLGSIASIDESEFLEIAWGLRNSNQPFLWVVRPGLIHGKEWIEILPKGFIENLEGRGKIVKWAPQPEVLAHRATGGFLTHCGWNSTLEGICEAIPMICRPSFGDQRVNARYINDVWKIGLHLENKVERLVIENAVRTLMTSSEGEEIRKRIMPMKETVEQCLKLGGSSFRNLENLIAYILSF
B1 gave a Km [1] of 191 ± 14 µM and a Km [2] of 75 ± 2 µM.
